Results from patent publication US20190031783A1 (AbbVie / Abbott, published 2019).
Several values for one entry are separate records, joined by “and”; a condition that tells them apart may be missing. Identical values can stand only once.

Legend:
[1] = molecular target: T1, human DLL4, full-length, expressed on HEK293G cells (human, UniProt Q9NR61 27-685); experiment: cell-based or functional assay
[2] = molecular target: T2, purified recombinant human DLL4 extracellular domain (ECD) (human, UniProt Q9NR61 27-529); experiment: SPR (Biacore), DVD captured via anti-human Fc, DLL4 ECD injected, 25 C
T2 construct: extracellular domain; also called human DLL4529; huDLL4
Experimental: (§1) For DLL4 binding kinetic measurements the assay buffer was HBS-EPB: 10 mM Hepes, pH7.5, 150 mM NaCl, 3 mM EDTA, 0.005% Tween 20, 0.1 mg/ml BSA (Sigma A7906). For VEGF binding kinetic measurements the assay buffer was HBS-EP+(3N01B): 10 mM Hepes, pH7.5, 300 mM NaCl, 3 mM EDTA, 0.05% Tween 20, 0.1 mg/ml BSA (Sigma A7906). For example, approximately 9000 RU of goat anti-human Fc specific polyclonal antibody (Thermo Fisher Scientific Inc., Rockford, Ill.) diluted in 10 mM sodium acetate (pH 4.5) is directly immobilized across a CM5 research grade biosensor chip using a standard amine coupling kit according to manufacturer's instructions and procedures at 25 ug/ml. Unreacted moieties on the biosensor surface are blocked with ethanolamine. For kinetic analysis, rate equations derived from the 1:1 Langmuir binding model are fitted simultaneously to multiple antigen injections (using global fit analysis) with the use of Scrubber 2 (BioLogic Software), Biacore Biaevaluation 4.0.1 software or Biacore T100 Evaluation software. Purified antibodies are diluted in running buffer for capture across goat anti-human Fc reaction surfaces. Antibodies to be captured as a ligand (1 ug/ml) are injected over reaction matrices at a flow rate of 10 ul/min. During the assay, all measurements are referenced against the capture surface alone (i.e. with no captured antibody). […] The equilibrium dissociation constant KD (M) of the reaction between antibodies and the target antigen is then calculated from the kinetic rate constants by the following formula: KD=Koff/Kₒₙ. Binding is recorded as a function of time and kinetic rate constants are calculated.

[3] = molecular target: T3, full-length human DLL4 on HEK293G cells (human, UniProt Q9NR61 27-685); experiment: flow cytometry (FACS) on HEK293G cells overexpressing full-length DLL4
T3 construct: whole, on cells; also called HEK293G cells expressing human DLL4
Experimental: Stable HEK293G cell lines overexpressing full-length DLL4 were harvested from tissue culture flasks, washed four times and resuspended in phosphate buffered saline (PBS) containing 1% bovine serum albumin and 1 mM CaCl₂ (FACS buffer). 1.5×10⁵ cells were incubated with DVD binding proteins at various concentrations in FACS buffer for 60 minutes on ice. […] Following an incubation on ice (4° C., 60 minutes), cells were washed three times and resuspended in FACS buffer. Fluorescence was measured using a Becton Dickinson FACSCalibur-HTS (Becton Dickinson, San Jose, Calif.). Data was analyzed using Graphpad Prism software and EC₅₀ values were reported as the concentration of antibody to achieve 50% of maximal antibodies binding to DLL4 expressing cells.

[4] = molecular target: T3, full-length human DLL4 on HEK293G cells; experiment: cell-based or functional assay
[5] = molecular target: T2, purified recombinant human DLL4 …; experiment: Notch competition ELISA: inhibition of biotin DLL4 ECD binding to coated human Notch-1
Experimental: Plates were then washed 3× with wash buffer (PBS, 0.05% Tween-20) and blocked with 200 μl/well blocking buffer (D-PBS, 1% BSA, 1 mM CaCl₂, 0.05% Tween-20) for 1 hour at 25° C. […] Assay plates were washed after blocking, and incubated with DLL4/antibody mixtures (100 μl/well, 1 hour at 25° C. with shaking). Plates were washed again and 100 μl/well of streptavidin conjugated with HRP (Fitzgerald #65R-S104PHRPx, diluted 1:5,000 in blocking buffer) was added for 1 hour at 25° C. with shaking. After a final wash, plates were developed using 100 μl/well substrate (TMB Sigma #T8665), and the reaction was stopped using 100 μl/well 1N HCl, and the absorbance was read at 450 nm. Data was analyzed using Graphpad Prism software and IC₅₀ values were reported as the concentration of antibody required to achieve 50% reduction of DLL4 binding to Notch1.

[6] = molecular target: T1, human DLL4, full-length, expressed on …; experiment: cell-based or functional assay; remark: listed apart in the source
[7] = molecular target: T2, purified recombinant human DLL4 …; experiment: SPR (Biacore), antibody captured via anti-human Fc, DLL4 ECD injected, 25 C
Experimental: as §1

B1: h1A11.1-SL-Av Fab (Fab)
chain 1: EVQLVESGGGLVQPGGSLRLSCAASGFTFSNFPMAWVRQAPGKGLEWVATISSSDGTTYYRDSVKGRFTISRDNAKNSLYLQMNSLRAEDTAVYYCARGYYNSPFAYWGQGTLVTVSSASTKGPEVQLVESGGGLVQPGGSLRLSCAASGYTFTNYGMNWVRQAPGKGLEWVGWINTYTGEPTYAADFKRRFTFSLDTSKSTAYLQMNSLRAEDTAVYYCAKYPHYYGSSHWYFDVWGQGTLVTVSS
chain 2: not shown
IC50 (nM), DLL4 neutralization cellular assay, 0 nM VEGF [1]: > 40 nM | IC50 (nM), DLL4 neutralization cellular assay, 150 nM BSG2 present [1]: > 40 nM | IC50 (nM), DLL4 neutralization cellular assay, 150 nM VEGF present [1]: 4.56 nM

B2: h1A11.1-SS-Av (bispecific antibody, human IgG1)
VH: EVQLVESGGGLVQPGGSLRLSCAASGFTFSNFPMAWVRQAPGKGLEWVATISSSDGTTYYRDSVKGRFTISRDNAKNSLYLQMNSLRAEDTAVYYCARGYYNSPFAYWGQGTLVTVSSASTKGPEVQLVESGGGLVQPGGSLRLSCAASGYTFTNYGMNWVRQAPGKGLEWVGWINTYTGEPTYAADFKRRFTFSLDTSKSTAYLQMNSLRAEDTAVYYCAKYPHYYGSSHWYFDVWGQGTLVTVSS
VL: DIQMTQSPSSLSASVGDRVTITCRASEDIYSNLAWYQQKPGKAPKLLIYDTNNLADGVPSRFSGSGSGTDFTLTISSLQPEDFATYYCQQYNNYPPTFGQGTKLEIKRTVAAPDIQMTQSPSSLSASVGDRVTITCSASQDISNYLNWYQQKPGKAPKVLIYFTSSLHSGVPSRFSGSGSGTDFTLTISSLQPEDFATYYCQQYSTVPWTFGQGTKVEIKR
notes: DVD-Ig; also called h1A11.1-SS-Av DVD
Kd [2]: 12 nM | EC50 [3]: 3.75 nM | Notch Activation IC50 [4]: 7.47 nM

B3: h1A11.1-LL-Av (bispecific antibody, human IgG1)
VH: EVQLVESGGGLVQPGGSLRLSCAASGFTFSNFPMAWVRQAPGKGLEWVATISSSDGTTYYRDSVKGRFTISRDNAKNSLYLQMNSLRAEDTAVYYCARGYYNSPFAYWGQGTLVTVSSASTKGPSVFPLAPEVQLVESGGGLVQPGGSLRLSCAASGYTFTNYGMNWVRQAPGKGLEWVGWINTYTGEPTYAADFKRRFTFSLDTSKSTAYLQMNSLRAEDTAVYYCAKYPHYYGSSHWYFDVWGQGTLVTVSS
VL: DIQMTQSPSSLSASVGDRVTITCRASEDIYSNLAWYQQKPGKAPKLLIYDTNNLADGVPSRFSGSGSGTDFTLTISSLQPEDFATYYCQQYNNYPPTFGQGTKLEIKRTVAAPSVFIFPPDIQMTQSPSSLSASVGDRVTITCSASQDISNYLNWYQQKPGKAPKVLIYFTSSLHSGVPSRFSGSGSGTDFTLTISSLQPEDFATYYCQQYSTVPWTFGQGTKVEIKR
notes: DVD-Ig; also called h1A11.1-LL-Av DVD
IC50 [5]: 0.79 nM | EC50 [3]: 5.04 nM | Notch Activation IC50 [4]: 4.56 nM

B4: h1A11.1-LS-Av (bispecific antibody, human IgG1)
VH: EVQLVESGGGLVQPGGSLRLSCAASGFTFSNFPMAWVRQAPGKGLEWVATISSSDGTTYYRDSVKGRFTISRDNAKNSLYLQMNSLRAEDTAVYYCARGYYNSPFAYWGQGTLVTVSSASTKGPSVFPLAPEVQLVESGGGLVQPGGSLRLSCAASGYTFTNYGMNWVRQAPGKGLEWVGWINTYTGEPTYAADFKRRFTFSLDTSKSTAYLQMNSLRAEDTAVYYCAKYPHYYGSSHWYFDVWGQGTLVTVSS
VL: DIQMTQSPSSLSASVGDRVTITCRASEDIYSNLAWYQQKPGKAPKLLIYDTNNLADGVPSRFSGSGSGTDFTLTISSLQPEDFATYYCQQYNNYPPTFGQGTKLEIKRTVAAPDIQMTQSPSSLSASVGDRVTITCSASQDISNYLNWYQQKPGKAPKVLIYFTSSLHSGVPSRFSGSGSGTDFTLTISSLQPEDFATYYCQQYSTVPWTFGQGTKVEIKR
notes: DVD-Ig; also called h1A11.1-LS-Av DVD
IC50 [5]: 0.76 nM | Kd [2]: 11 nM | EC50 [3]: 5 nM | Notch Activation IC50 [4]: 4.59 nM

B5: h1A11.1 humanized anti-DLL4 mAb (antibody, V domains shown)
VH: EVQLVESGGGLVQPGGSLRLSCAASGFTFSNFPMAWVRQAPGKGLEWVATISSSDGTTYYRDSVKGRFTISRDNAKNSLYLQMNSLRAEDTAVYYCARGYYNSPFAYWGQGTLVTVSS
VL: DIQMTQSPSSLSASVGDRVTITCRASEDIYSNLAWYQQKPGKAPKLLIYDTNNLADGVPSRFSGSGSGTDFTLTISSLQPEDFATYYCQQYNNYPPTFGQGTKLEIKR
IC50 (nM), DLL4-Notch reporter assay, h1A11.1 + Av mixture, 0 nM VEGF [6]: 8.64 nM and 9.17 nM | IC50 (nM), DLL4-Notch reporter assay, h1A11.1 + Av mixture, 6 nM BSG2 (negative control protein) present [6]: 9.55 nM | IC50 (nM), DLL4-Notch reporter assay, h1A11.1 + Av mixture, 6 nM VEGF present [6]: 9.97 nM | IC50 (nM), DLL4-Notch reporter assay, h1A11.1 + Av mixture, 150 nM BSG2 (negative control protein) present [6]: 10.9 nM | IC50 (nM), DLL4-Notch reporter assay, h1A11.1 + Av mixture, 150 nM VEGF present [6]: 10.3 nM

B6: humanized anti-DLL4 mAb (h1A11.1) (antibody, V domains shown)
VH: EVQLVESGGGLVQPGGSLRLSCAASGFTFSNFPMAWVRQAPGKGLEWVATISSSDGTTYYRDSVKGRFTISRDNAKNSLYLQMNSLRAEDTAVYYCARGYYNSPFAYWGQGTLVTVSS
VL: DIQMTQSPSSLSASVGDRVTITCRASEDIYSNLAWYQQKPGKAPKLLIYDTNNLADGVPSRFSGSGSGTDFTLTISSLQPEDFATYYCQQYNNYPPTFGQGTKLEIKR
notes: Parental humanized anti-DLL4 mAb
Kd [7]: 12 nM | koff [7]: 0.00193 s⁻¹ | kon [7]: 160000 M⁻¹ s⁻¹
